# Measurements as given in US20260193342A1 (ZOETIS SERVICES, published 2026).
# Where a chain is given by its changes, count along the chain named.
# B1: mAb2 of Table 4A, caninized anti-NGF antibody ZTS-841, canine IgGB, WT (antibody)
# heavy: EVQLVESGGDLVKPGGSLRLSCVASGFTFSSHGMHWVRQSPGKGLQWVAVINSGGSSTYYTDAVKGRFTISRDNAKNTVYLQMNSLRAEDTAMYYCAKESVGGWEQLVGPHFDYWGQGTLVIVSSASTTAPSVFPLAPSCGSTSGSTVALACLVSGYFPEPVTVSWNSGSLTSGVHTFPSVLQSSGLYSLSSMVTVPSSRWPSETFTCNVAHPASKTKVDKPVPKRENGRVPRPPDCPKCPAPEMLGGPSVFIFPPKPKDTLLIARTPEVTCVVVDLDPEDPEVQISWFVDGKQMQTAKTQPREEQFNGTYRVVSVLPIGHQDWLKGKQFTCKVNNKALPSPIERTISKARGQAHQPSVYVLPPSREELSKNTVSLTCLIKDFFPPDIDVEWQSNGQQEPESKYRTTPPQLDEDGSYFLYSKLSVDKSRWQRGDTFICAVMHEALHNHYTQESLSHSPGK
# VL: QSVLTQPTSVSGSLGQRVTISCSGSTNNIGILGASWYQLFPGKAPKLLVYGNGNRPSGVPDRFSGADSGDSVTLTITGLQAEDEADYYCQSFDTTLGAHVFGGGTHLTVL
# notes: also called ID No. 46
# B2: mAb2 of Table 4A, caninized anti-NGF antibody ZTS-841, canine IgGB, N434G (antibody)
# heavy: B1 heavy with N447G
# VL: B1 VL
# notes: also called ID No. 49
# B3: mAb2 of Table 4A, caninized anti-NGF antibody ZTS-841, canine IgGB, N434A (antibody)
# heavy: B1 heavy with N447A
# VL: B1 VL
# notes: also called ID No. 47
# B4: mAb2 of Table 4A, caninized anti-NGF antibody ZTS-841, canine IgGB, N434F (antibody)
# heavy: B1 heavy with N447F
# VL: B1 VL
# notes: also called ID No. 48
# B5: mAb2 of Table 4A, caninized anti-NGF antibody ZTS-841, canine IgGC, WT (antibody)
# heavy: EVQLVESGGDLVKPGGSLRLSCVASGFTFSSHGMHWVRQSPGKGLQWVAVINSGGSSTYYTDAVKGRFTISRDNAKNTVYLQMNSLRAEDTAMYYCAKESVGGWEQLVGPHFDYWGQGTLVIVSSASTTAPSVFPLAPSCGSQSGSTVALACLVSGYIPEPVTVSWNSVSLTSGVHTFPSVLQSSGLYSLSSMVTVPSSRWPSETFTCNVAHPATNTKVDKPVAKECECKCNCNNCPCPGCGLLGGPSVFIFPPKPKDILVTARTPTVTCVVVDLDPENPEVQISWFVDSKQVQTANTQPREEQSNGTYRVVSVLPIGHQDWLSGKQFKCKVNNKALPSPIEEIISKTPGQAHQPNVYVLPPSRDEMSKNTVTLTCLVKDFFPPEIDVEWQSNGQQEPESKYRMTPPQLDEDGSYFLYSKLSVDKSRWQRGDTFICAVMHEALHNHYTQISLSHSPGK
# VL: B1 VL
# notes: also called ID No. 53
# B6: mAb2 of Table 4A, caninized anti-NGF antibody ZTS-841, canine IgGB, N434L (antibody)
# heavy: B1 heavy with N447L
# VL: B1 VL
# notes: also called ID No. 52
# B7: mAb1, caninized anti-IL31 antibody 34D03, canine IgGC, WT (antibody)
# heavy: EVQLVESGGDLVKPGGSLRLSCVASGFTFSNYGMSWVRQAPGKGLQWVATISYGGSYTYYPDNIKGRFTISRDNAKNTLYLQMNSLRAEDTAMYYCVRGYGYDTMDYWGQGTLVTVSSASTTAPSVFPLAPSCGSQSGSTVALACLVSGYIPEPVTVSWNSVSLTSGVHTFPSVLQSSGLYSLSSMVTVPSSRWPSETFTCNVAHPATNTKVDKPVAKECECKCNCNNCPCPGCGLLGGPSVFIFPPKPKDILVTARTPTVTCVVVDLDPENPEVQISWFVDSKQVQTANTQPREEQSNGTYRVVSVLPIGHQDWLSGKQFKCKVNNKALPSPIEEIISKTPGQAHQPNVYVLPPSRDEMSKNTVTLTCLVKDFFPPEIDVEWQSNGQQEPESKYRMTPPQLDEDGSYFLYSKLSVDKSRWQRGDTFICAVMHEALHNHYTQISLSHSPGK
# VL: EIVMTQSPASLSLSQEEKVTITCKASQSVSFAGTGLMHWYQQKPGQAPKLLIYRASNLEAGVPSRFSGSGSGTDFSFTISSLEPEDVAVYYCQQSREYPWTFGQGTKLEIK
# notes: VH/VL: the caninized 34D03 entries of the listing; also called ID No. 35
# Molecular target: canine FcRn complex (FcRn-α subunit and β-microglobulin) (canine, UniProt A0A8I3PFR8 25-347, biotin on the BAP tag by BirA (Example 5 only))
# Sequence (A0A8I3PFR8 entry or part of it, one chain of several): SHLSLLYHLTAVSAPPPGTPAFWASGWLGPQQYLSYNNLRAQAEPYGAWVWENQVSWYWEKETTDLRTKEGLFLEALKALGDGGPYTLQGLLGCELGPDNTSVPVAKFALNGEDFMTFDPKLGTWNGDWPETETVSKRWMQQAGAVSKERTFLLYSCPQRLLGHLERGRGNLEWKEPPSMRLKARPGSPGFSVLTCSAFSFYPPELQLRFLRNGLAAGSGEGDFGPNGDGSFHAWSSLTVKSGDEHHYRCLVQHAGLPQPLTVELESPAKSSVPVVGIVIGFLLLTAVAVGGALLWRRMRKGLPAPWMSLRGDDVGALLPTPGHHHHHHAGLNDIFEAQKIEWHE
# Experiment: SPR (Biacore), biotinylated FcRn on SA chip, IgG flowed, pH 6, 15 C
binder,measurement,value
B1,Kd,91.5 nM
B2,Kd,34.3 nM
B3,Kd,9.81 nM
B4,Kd,1.92 nM
B5,Kd,52 nM
B6,Kd,1.83 nM
B7,Kd,100 nM
